Common to all, as to test: stopped-flow fluorometry; tGppNHp (tamra-GppNHp)-bound CDC42 or CDC42 Q61L (0.2 μM) rapidly mixed with IQGAP1 variant (2-10 μM GRD1-CT for Q61L); Kd = koff/kon; 30 mM Tris-HCl pH 7.5, 10 mM KH2PO4/K2HPO4, 5 mM MgCl2, 3 mM DTT
What all share (details): both partners purified

Test [1] addresses T1, IQGAP1 GRD1-CT (aa 863-1657) (human, UniProt P46940 863-1657).
T1 construct: human IQGAP1, GRD, RGCT and CT domains, aa 863-1657; The GST tag was cleaved 'if needed'; also called C-terminal half of IQGAP1; C-terminal 795 amino acids of IQGAP1
T1 sequence (looked up): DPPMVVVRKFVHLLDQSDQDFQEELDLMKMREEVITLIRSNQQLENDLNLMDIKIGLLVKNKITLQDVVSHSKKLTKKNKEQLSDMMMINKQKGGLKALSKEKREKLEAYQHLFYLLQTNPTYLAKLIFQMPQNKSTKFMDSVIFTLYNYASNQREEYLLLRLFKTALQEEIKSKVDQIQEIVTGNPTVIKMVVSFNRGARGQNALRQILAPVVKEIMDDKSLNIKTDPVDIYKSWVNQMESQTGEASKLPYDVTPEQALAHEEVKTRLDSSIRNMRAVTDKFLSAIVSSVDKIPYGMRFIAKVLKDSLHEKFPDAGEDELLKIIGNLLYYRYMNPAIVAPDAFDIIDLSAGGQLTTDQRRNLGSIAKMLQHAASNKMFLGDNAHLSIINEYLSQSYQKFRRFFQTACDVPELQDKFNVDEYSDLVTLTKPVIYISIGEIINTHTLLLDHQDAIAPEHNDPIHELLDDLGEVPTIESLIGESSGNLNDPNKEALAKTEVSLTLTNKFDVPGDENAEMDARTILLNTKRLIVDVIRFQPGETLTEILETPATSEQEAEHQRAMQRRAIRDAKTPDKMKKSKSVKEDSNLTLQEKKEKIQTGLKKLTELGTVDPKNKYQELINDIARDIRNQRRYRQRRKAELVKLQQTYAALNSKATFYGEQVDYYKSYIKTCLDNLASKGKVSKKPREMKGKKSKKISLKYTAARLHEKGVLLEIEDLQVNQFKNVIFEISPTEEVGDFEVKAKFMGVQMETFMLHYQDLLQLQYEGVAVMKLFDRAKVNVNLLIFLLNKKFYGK

In test [2] the target is T2, IQGAP1 GRD1-RGCT wild type (aa 877-1558) (human, UniProt P46940 877-1558).
T2 construct: human IQGAP1, GRD and RGCT domains, lacks the last 99 amino acids, aa 877-1558; also called GRD1-RGCT^WT; IQGAP1^877-1558
T2 sequence (looked up): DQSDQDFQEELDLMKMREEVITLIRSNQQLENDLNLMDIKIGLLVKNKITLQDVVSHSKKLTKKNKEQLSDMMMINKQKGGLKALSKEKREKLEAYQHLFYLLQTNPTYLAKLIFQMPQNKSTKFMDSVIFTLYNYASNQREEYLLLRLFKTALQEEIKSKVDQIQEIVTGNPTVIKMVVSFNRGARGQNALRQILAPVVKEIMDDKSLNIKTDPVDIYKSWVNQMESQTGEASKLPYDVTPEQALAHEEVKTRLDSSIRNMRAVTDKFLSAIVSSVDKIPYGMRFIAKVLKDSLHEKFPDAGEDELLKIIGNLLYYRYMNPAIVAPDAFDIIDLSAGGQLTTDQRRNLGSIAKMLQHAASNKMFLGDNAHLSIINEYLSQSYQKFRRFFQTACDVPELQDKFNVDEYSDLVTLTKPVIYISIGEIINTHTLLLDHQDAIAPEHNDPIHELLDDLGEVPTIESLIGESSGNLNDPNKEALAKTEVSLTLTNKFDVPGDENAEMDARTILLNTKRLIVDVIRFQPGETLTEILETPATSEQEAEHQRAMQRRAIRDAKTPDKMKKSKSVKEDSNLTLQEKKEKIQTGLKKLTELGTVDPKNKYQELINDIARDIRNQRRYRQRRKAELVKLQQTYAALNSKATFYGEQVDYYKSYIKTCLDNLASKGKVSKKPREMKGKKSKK

Test [3] addresses T3, IQGAP1 GRD1-RGCT S1443E (aa 877-1558) (human, UniProt P46940 877-1558, S1443E).
T3 construct: human IQGAP1 aa 877-1558 with the phosphomimetic mutation S1443E (printed as S1143E in the methods, S1443E everywhere else), from the vector pET46 EkLIC; source: E. coli (pLysS BL21(DE3), CodonPlusRIL or BL21(Rosetta)), purified (Ni-NTA, gel filtration)
T3 sequence (looked up): T2 sequence (looked up) with S567E

Substitutions are numbered along the chain they refer to.

B1: CDC42 (aa 1-178) (domain or fragment)
chain: not shown
notes: human CDC42, C-terminally truncated, aa 1-178; Loaded non-covalently with mGppNHp, tGppNHp, mGDP or non-fluorescent GppNHp; the nucleotide is named in the format of each assay; also called CDC42^WT; CDC42-mGppNHp
As for B1, the results for the Kd in test [1], in test [2] and in test [3] were 0.38 µM, 1.45 µM and 4.19 µM, respectively.

The term Kd denotes a measure of binding affinity in units of concentration.

The values are drawn from PMC5159498, “IQGAP1 Interaction with RHO Family Proteins Revisited” (The Journal of Biological Chemistry, 2016).
